The record followed here is paper PMC3627576 (Nucleic Acids Research, 2013).

The target in one data set is T1, Pab-Pol D (Pyrococcus abyssi, UniProt Q9V2F4).
T1 sequence (Q9V2F4 1-954): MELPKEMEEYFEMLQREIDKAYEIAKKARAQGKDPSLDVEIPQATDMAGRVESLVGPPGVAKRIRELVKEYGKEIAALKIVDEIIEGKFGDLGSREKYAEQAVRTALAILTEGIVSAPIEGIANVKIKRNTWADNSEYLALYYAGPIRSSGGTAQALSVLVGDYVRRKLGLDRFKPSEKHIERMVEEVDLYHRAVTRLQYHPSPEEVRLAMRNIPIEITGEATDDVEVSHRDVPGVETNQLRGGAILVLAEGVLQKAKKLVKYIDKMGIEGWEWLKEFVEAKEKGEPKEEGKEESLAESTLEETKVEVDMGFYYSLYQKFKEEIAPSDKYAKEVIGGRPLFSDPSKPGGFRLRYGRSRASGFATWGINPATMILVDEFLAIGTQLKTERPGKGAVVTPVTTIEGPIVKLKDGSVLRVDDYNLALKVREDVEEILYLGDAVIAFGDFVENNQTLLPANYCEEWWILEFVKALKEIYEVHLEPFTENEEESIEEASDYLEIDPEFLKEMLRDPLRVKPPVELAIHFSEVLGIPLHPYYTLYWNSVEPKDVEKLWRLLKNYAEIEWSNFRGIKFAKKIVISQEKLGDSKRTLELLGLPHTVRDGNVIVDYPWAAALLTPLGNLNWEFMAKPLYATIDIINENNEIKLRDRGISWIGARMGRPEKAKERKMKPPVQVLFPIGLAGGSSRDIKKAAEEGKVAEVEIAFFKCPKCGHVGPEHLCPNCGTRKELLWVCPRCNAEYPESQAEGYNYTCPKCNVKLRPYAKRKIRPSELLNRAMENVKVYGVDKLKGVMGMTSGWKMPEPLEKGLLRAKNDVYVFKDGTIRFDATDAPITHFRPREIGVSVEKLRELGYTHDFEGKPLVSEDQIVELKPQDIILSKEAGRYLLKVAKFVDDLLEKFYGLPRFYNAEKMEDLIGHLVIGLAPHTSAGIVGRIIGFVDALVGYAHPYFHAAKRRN
T1 sequence (Q9V2F4 1140-1455): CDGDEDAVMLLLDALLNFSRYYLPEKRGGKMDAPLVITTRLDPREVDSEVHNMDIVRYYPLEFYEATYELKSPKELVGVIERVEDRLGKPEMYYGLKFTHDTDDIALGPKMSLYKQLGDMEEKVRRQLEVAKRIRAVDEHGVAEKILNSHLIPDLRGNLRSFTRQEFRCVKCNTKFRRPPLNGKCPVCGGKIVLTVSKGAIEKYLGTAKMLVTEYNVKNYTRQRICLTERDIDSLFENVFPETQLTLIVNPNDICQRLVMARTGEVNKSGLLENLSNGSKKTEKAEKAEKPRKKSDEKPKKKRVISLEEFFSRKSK
T1 sequence (Q9V2F3 1-619 partner): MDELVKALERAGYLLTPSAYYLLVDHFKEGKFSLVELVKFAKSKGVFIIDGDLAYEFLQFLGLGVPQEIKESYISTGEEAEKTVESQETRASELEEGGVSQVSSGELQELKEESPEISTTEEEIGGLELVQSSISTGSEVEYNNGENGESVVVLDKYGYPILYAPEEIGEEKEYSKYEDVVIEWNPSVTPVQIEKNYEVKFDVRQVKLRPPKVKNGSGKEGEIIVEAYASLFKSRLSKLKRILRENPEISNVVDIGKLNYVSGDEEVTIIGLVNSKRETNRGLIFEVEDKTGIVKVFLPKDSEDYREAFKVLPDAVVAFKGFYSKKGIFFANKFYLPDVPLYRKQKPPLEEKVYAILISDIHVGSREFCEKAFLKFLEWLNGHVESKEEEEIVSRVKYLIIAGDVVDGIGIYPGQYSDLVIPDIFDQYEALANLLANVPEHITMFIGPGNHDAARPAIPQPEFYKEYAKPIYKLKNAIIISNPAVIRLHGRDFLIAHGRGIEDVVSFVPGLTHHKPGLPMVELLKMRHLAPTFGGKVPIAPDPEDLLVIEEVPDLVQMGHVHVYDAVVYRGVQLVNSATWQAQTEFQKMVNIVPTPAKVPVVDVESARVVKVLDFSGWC
As to the kind of experiment: primer extension with a single dNTP, denaturing gel. It counts as biochemical. To be noted: exo+ enzyme; template U at +1; otherwise same.

Data set [1] addresses Pfu-Pol D (family-D DNA polymerase, DP1 small + DP2 large subunits) (Pyrococcus furiosus, UniProt P81409;P81412 1-1263;1-613). As to the kind of experiment: fluorescence anisotropy.

Chain of Pfu-Pol D (family-D DNA polymerase, DP1 small + DP2 large subunits) (P81409 whole entry, chain 1 of 2): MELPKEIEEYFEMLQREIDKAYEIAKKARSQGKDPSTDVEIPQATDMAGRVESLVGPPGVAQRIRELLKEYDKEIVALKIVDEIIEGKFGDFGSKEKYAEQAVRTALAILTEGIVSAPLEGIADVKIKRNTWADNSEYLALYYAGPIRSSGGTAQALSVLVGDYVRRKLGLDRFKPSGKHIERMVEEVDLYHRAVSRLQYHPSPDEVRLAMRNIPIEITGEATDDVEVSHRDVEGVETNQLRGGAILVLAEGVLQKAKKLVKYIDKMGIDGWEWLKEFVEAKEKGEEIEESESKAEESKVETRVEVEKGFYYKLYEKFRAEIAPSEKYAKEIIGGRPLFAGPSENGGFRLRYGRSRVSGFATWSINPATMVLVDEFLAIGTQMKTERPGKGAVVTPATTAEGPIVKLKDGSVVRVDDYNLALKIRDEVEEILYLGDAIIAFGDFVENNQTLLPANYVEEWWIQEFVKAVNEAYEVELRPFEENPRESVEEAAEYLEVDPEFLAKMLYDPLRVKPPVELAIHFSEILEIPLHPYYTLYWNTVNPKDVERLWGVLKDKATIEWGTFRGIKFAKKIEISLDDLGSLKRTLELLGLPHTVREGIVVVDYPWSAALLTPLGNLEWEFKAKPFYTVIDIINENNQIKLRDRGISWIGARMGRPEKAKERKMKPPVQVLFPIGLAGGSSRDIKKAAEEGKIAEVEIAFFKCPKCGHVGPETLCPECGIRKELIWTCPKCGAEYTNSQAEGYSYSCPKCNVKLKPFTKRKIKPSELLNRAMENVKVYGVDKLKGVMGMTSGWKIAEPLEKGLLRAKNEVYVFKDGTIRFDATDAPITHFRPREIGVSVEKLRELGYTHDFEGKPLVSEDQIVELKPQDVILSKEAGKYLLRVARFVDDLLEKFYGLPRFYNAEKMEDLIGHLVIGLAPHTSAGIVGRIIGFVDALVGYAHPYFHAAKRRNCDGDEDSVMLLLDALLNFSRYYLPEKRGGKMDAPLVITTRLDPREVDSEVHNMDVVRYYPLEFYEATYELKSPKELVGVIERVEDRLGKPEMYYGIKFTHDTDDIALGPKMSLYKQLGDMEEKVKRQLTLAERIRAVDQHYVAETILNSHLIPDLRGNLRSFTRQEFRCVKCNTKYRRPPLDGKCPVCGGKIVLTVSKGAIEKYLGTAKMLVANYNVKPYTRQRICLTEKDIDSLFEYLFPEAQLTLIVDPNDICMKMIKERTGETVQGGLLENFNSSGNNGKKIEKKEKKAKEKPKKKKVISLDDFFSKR
Chain of Pfu-Pol D (family-D DNA polymerase, DP1 small + DP2 large subunits) (P81412 whole entry, chain 2 of 2): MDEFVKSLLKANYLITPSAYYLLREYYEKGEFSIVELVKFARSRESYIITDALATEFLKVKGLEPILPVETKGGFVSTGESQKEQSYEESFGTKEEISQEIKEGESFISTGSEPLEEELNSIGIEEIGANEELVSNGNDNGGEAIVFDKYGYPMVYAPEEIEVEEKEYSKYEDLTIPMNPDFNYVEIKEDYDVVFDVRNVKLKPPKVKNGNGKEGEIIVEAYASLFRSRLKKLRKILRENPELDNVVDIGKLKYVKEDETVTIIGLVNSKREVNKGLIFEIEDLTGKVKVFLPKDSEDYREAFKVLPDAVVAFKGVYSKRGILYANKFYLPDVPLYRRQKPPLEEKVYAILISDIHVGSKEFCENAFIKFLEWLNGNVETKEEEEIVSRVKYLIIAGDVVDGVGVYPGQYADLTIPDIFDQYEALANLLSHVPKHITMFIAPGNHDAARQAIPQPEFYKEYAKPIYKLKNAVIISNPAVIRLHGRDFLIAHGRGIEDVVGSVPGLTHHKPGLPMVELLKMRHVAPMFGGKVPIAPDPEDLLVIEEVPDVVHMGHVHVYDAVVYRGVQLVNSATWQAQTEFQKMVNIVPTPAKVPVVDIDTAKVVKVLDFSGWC

Consider `Nc1ncnc2c1ncn2[C@H]1C[C@H](O)[C@@H](COP(=O)(O)OP(=O)(O)OP(=O)(O)O)O1` [dATP], for which the “primer extension with a single dNTP, denaturing gel” value on Pab-Pol D is “Pab-Pol D exo^+ only incorporated adenine opposite uracil”.

The Kd is the free concentration of one partner at which half of the binding sites on the other are occupied at equilibrium, for simple one-to-one binding. For TTTCTGGTTCCAGCTGGACCATTCGCCTATAGGACCTATT (ssDNA) [single strand, X=T], the Kd in data set [1] was determined as 6 ± 1.6 nM.

B1: primer-template -1, X=T (dsDNA)
DNA 1: TTTCTGGTTCCAGCTGGACCATTCGCCTATAGGACCTATT
DNA 2: AATAGGTCCTATAGGCGAATGGTCCAGCTGGAA
On to B1, for which the Kd in data set [1] was 9.3 ± 0.6 nM.

B2: primer-template +1, X=U (dsDNA)
DNA 1: TTTCTGGTUCCAGCTGGACCATTCGCCTATAGGACCTATT
DNA 2: AATAGGTCCTATAGGCGAATGGTCCAGCTGG
modifications: deoxyuridine at template position 9
As to B2, the Kd in data set [1] stood at 5.8 ± 0.4 nM.

B3: primer-template -1, X=U (dsDNA)
DNA 1: TTTCTGGTUCCAGCTGGACCATTCGCCTATAGGACCTATT
DNA 2: AATAGGTCCTATAGGCGAATGGTCCAGCTGGAA
modifications: deoxyuridine at template position 9
As to B3, the Kd in data set [1] was 5.2 ± 1.3 nM.

B4: primer-template +1, X=T (dsDNA)
DNA 1: TTTCTGGTTCCAGCTGGACCATTCGCCTATAGGACCTATT
DNA 2: AATAGGTCCTATAGGCGAATGGTCCAGCTGG
Regarding B4, the Kd in data set [1] is 9.1 ± 1.5 nM.

With TTTCTGGTUCCAGCTGGACCATTCGCCTATAGGACCTATT (ssDNA, deoxyuridine at position 9) [single strand, X=U], the Kd in data set [1] came to 3.4 ± 0.3 nM.
